Data on 24 sequences can be found in the supplement of paper PMC9732359.

± gives the uncertainty stated by the source.

This data set is described as follows: protein stability index of a GFP-peptide fusion (yeast GPS) (PSI 1-4); higher = more stable; sorted into four equal gates, so the index is relative within each strain. An outline of the steps: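 Plasmids in a pooled yeast library fused tiled 17-residue yeast protein peptides downstream of GFP and also expressed Cherry. Mid-log cultures grown without leucine were sorted into four equal gates by GFP/Cherry fluorescence ratio. Each gate's plasmids were PCR-amplified and Illumina-sequenced, and reads were matched to strains by barcodes. The protein stability index is derived by multiplying each gate's read frequency by its gate number and summing the results.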

Regarding SGYNQEDSMIMNQSSID [RPB2], the protein stability index (doa10∆) was 2.46 ± 0.11, the protein stability index (pdr5∆) amounted to 2.67 ± 0.12 and the protein stability index (ubr1∆) came out at 2.84 ± 0.067.

For the sequence SHERFFLSQGLHVVITL [CSN12], the protein stability index is, setting by setting: (doa10∆) 2.89 ± 0.099; (pdr5∆) 2.94 ± 0.094; (san1∆) 2.74 ± 0.18; (ubr1∆) 2.87 ± 0.12.

For SHINTNVGDNNSTASSS [ARP7], the protein stability index amounted to 2.68 ± 0.095 (doa10∆), 3.02 ± 0.067 (pdr5∆), 2.9 ± 0.062 (san1∆) and 2.84 ± 0.066 (ubr1∆).

Take SHLFNEYSYVDSNMDSI [RPN4]: the protein stability index by setting is: (doa10∆) 3.26 ± 0.1; (pdr5∆) 3.56 ± 0.087; (san1∆) 2.93 ± 0.1; (ubr1∆) 3.06 ± 0.069.

Regarding SHNVDELLEHIETIGHL [RPN5], the protein stability index runs as follows: (doa10∆) 2.51 ± 0.084; (pdr5∆) 2.24 ± 0.1; (san1∆) 2.14 ± 0.11; (ubr1∆) 1.53 ± 0.082.

For SIAAERYDYSDEVGRRS [YCG1], the protein stability index was 3 ± 0.075 (doa10∆), 2.99 ± 0.11 (pdr5∆), 2.65 ± 0.14 (san1∆) and 3.04 ± 0.063 (ubr1∆).

In turn, SIATKRFDAQTGSDREV [RPT3] registered a protein stability index (doa10∆) of 3.28 ± 0.13, a protein stability index (pdr5∆) of 3.17 ± 0.1, a protein stability index (san1∆) of 3.17 ± 0.077 and a protein stability index (ubr1∆) of 3.48 ± 0.11.

Take SIISSKTSCVVEKRIGK [RGR1]: the protein stability index came to 2.46 ± 0.089 (doa10∆), 2.62 ± 0.084 (pdr5∆), 2.59 ± 0.093 (san1∆) and 2.69 ± 0.05 (ubr1∆).

Turning to SIKEHSTTMDGANDLGF [MED1], the protein stability index came to 2.53 ± 0.14 (doa10∆), 2.8 ± 0.073 (pdr5∆), 2.15 ± 0.28 (san1∆) and 2.86 ± 0.09 (ubr1∆).

As for SIVLLLLSQFGIKVLPE [YML103C/NUP188], the protein stability index reads like this: (doa10∆) 1.8 ± 0.096; (pdr5∆) 1.28 ± 0.085; (san1∆) 1.18 ± 0.13; (ubr1∆) 1.42 ± 0.033.

Sequence SIVTVVSSAKFSGKYLK [RPL22B] registered a protein stability index (doa10∆) of 2.8 ± 0.1, a protein stability index (pdr5∆) of 2.86 ± 0.11, a protein stability index (san1∆) of 2.73 ± 0.085 and a protein stability index (ubr1∆) of 2.73 ± 0.093.

As for SKALYPDYYMIIKYPVA [SNF2], the protein stability index turned out to be 2.37 ± 0.039 (doa10∆), 2.31 ± 0.038 (pdr5∆), 2.02 ± 0.054 (san1∆) and 2.53 ± 0.031 (ubr1∆).

As to SKEVRGSKIRVMWGKVT [RPL33A], the protein stability index is 2.68 ± 0.1 (doa10∆), 2.35 ± 0.12 (pdr5∆), 2.4 ± 0.092 (san1∆) and 2.6 ± 0.067 (ubr1∆).

Turning to SKFSKQQAKGAFQKVAA [RPL24A], the protein stability index came out at 2.21 ± 0.065 (doa10∆), 2.7 ± 0.078 (pdr5∆), 2.9 ± 0.05 (san1∆) and 2.54 ± 0.05 (ubr1∆).

SKINSTELLDYATKLSK [MED4] came in with a protein stability index (doa10∆) of 2.79 ± 0.23, a protein stability index (pdr5∆) of 2.72 ± 0.12, a protein stability index (san1∆) of 2.49 ± 0.072 and a protein stability index (ubr1∆) of 2.94 ± 0.15.

As to SKLIPEVINKEIENATK [RPS1A], the protein stability index reads like this: (doa10∆) 2.86 ± 0.22; (san1∆) 2.78 ± 0.23; (ubr1∆) 3.16 ± 0.19.

Turning to SKLKKETASFIPTKESL [YIL149C/MLP2], the protein stability index reads like this: (doa10∆) 2.74 ± 0.072; (pdr5∆) 3.15 ± 0.098; (san1∆) 2.44 ± 0.15; (ubr1∆) 2.57 ± 0.057.

SKLLREHGYQSRGFEVM [RPB2]: the protein stability index reads like this: (doa10∆) 3.14 ± 0.13; (pdr5∆) 2.71 ± 0.16; (san1∆) 2.9 ± 0.14; (ubr1∆) 2.61 ± 0.19.

As for SKLPDPERWLPLRDRST [SRP72], the protein stability index worked out at 2.09 ± 0.067 (doa10∆), 2.91 ± 0.068 (pdr5∆), 2.55 ± 0.077 (san1∆) and 2.46 ± 0.058 (ubr1∆).

As for SKMYNTDKKAFLGALKY [PRP8], the protein stability index by setting is: (doa10∆) 2.52 ± 0.092; (pdr5∆) 2.27 ± 0.071; (san1∆) 2.47 ± 0.1; (ubr1∆) 2.63 ± 0.11.

With SKNSKLSIICVGGHNVT [SIR3], the protein stability index is, setting by setting: (doa10∆) 1.71 ± 0.069; (pdr5∆) 1.57 ± 0.039; (san1∆) 1.39 ± 0.081; (ubr1∆) 1.52 ± 0.041.

The sequence SKQNGIEQSITKNIPIT [SSN8] came in with a protein stability index (doa10∆) of 2.63 ± 0.082, a protein stability index (pdr5∆) of 2.67 ± 0.069, a protein stability index (san1∆) of 2.66 ± 0.079 and a protein stability index (ubr1∆) of 2.84 ± 0.068.

Regarding SKQVQVSQQPLSRGYTC [ECM29], the protein stability index reads like this: (doa10∆) 2.83 ± 0.074; (pdr5∆) 2.76 ± 0.091; (san1∆) 2.44 ± 0.061; (ubr1∆) 2.92 ± 0.052.

As for SKSMKFSRRFDCRDVYC [CSN9], the protein stability index runs as follows: (doa10∆) 2.7 ± 0.07; (pdr5∆) 2.64 ± 0.09; (san1∆) 2.58 ± 0.088; (ubr1∆) 2.66 ± 0.051.
